Assay results taken from IntAct's records for PubMed 25064736.

B1: Nibrin (Homo sapiens), O60934 (parent)
chain: MWKLLPAAGPAGGEPYRLLTGVEYVVGRKNCAILIENDQSISRNHAVLTANFSVTNLSQTDEIPVLTLKDNSKYGTFVNEEKMQNGFSRTLKSGDGITFGVFGSKFRIEYEPLVACSSCLDVSGKTALNQAILQLGGFTVNNWTEECTHLVMVSVKVTIKTICALICGRPIVKPEYFTEFLKAVESKKQPPQIESFYPPLDEPSIGSKNVDLSGRQERKQIFKGKTFIFLNAKQHKKLSSAVVFGGGEARLITEENEEEHNFFLAPGTCVVDTGITNSQTLIPDCQKKWIQSIMDMLQRQGLRPIPEAEIGLAVIFMTTKNYCDPQGHPSTGLKTTTPGPSLSQGVSVDEKLMPSAPVNTTTYVADTESEQADTWDLSERPKEIKVSKMEQKFRMLSQDAPTVKESCKTSSNNNSMVSNTLAKMRIPNYQLSPTKLPSINKSKDRASQQQQTNSIRNYFQPSTKKRERDEENQEMSSCKSARIETSCSLLEQTQPATPSLWKNKEQHLSENEPVDTNSDNNLFTDTDLKSIVKNSASKSHAAEKLRSNKKREMDDVAIEDEVLEQLFKDTKPELEIDVKVQKQEEDVNVRKRPRMDIETNDTFSDEAVPESSKISQENEIGKKRELKEDSLWSAKEISNNDKLQDDSEMLPKKLLLTEFRSLVIKNSTSRNPSGINDDYGQLKNFKKFKKVTYPGAGKLPHIIGGSDLIAHHARKNTELEEWLRQEMEVQNQHAKEESLADDLFRYNPYLKRRR
partner: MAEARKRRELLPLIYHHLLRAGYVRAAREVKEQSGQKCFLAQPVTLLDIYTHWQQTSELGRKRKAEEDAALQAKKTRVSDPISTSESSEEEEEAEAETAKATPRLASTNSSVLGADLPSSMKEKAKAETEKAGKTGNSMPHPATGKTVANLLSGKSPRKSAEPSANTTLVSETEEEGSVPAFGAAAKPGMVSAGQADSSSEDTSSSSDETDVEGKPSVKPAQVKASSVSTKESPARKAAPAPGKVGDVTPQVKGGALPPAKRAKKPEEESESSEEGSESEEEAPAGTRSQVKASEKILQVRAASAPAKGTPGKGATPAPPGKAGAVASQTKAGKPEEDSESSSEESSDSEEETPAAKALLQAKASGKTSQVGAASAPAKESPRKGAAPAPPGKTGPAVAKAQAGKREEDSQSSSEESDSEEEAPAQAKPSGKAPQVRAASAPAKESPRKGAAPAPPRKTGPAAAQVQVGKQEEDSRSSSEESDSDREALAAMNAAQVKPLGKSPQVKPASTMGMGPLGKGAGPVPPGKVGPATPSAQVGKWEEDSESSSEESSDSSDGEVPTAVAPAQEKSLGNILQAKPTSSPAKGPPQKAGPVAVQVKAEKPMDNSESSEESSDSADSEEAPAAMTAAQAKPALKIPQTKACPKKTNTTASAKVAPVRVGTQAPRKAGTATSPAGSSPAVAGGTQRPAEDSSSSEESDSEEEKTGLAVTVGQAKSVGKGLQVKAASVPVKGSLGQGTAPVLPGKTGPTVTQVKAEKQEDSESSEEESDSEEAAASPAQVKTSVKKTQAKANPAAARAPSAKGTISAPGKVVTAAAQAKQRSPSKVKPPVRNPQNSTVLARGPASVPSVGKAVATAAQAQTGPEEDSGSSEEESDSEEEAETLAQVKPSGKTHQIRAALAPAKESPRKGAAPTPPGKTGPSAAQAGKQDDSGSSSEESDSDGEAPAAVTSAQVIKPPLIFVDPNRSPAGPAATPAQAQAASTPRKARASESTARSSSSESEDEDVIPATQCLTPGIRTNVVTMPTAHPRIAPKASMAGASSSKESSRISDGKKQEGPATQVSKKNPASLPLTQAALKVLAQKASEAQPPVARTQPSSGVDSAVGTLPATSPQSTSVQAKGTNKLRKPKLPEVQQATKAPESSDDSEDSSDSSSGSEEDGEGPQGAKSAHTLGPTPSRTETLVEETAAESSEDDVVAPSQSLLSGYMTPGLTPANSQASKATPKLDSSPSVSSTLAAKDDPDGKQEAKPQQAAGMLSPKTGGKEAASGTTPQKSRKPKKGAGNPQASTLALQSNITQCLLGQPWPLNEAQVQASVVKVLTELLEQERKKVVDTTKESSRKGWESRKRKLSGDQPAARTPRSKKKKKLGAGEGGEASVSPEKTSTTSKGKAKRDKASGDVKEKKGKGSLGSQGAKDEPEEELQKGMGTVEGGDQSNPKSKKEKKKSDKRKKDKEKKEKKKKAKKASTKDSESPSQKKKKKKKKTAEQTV
B2: Treacle protein (Homo sapiens), Q13428 (parent)
chain: B1 partner

Variants of: B1
Conditions: with tcof_human TCOF1, Q13428

Row | effect of a mutation on the interaction | Variant
1 | disrupting interaction strength | R28A;K160M

Variants of: B1
Conditions: with tcof_human TCOF1, Q13428
Remark: another data set of the same source

Row | effect of a mutation on the interaction | Variant
2 | disrupting interaction strength | R28A

Variants of: B2
Conditions: with nbn_human NBN

Row | effect of a mutation on the interaction | Variant
3 | disrupting interaction strength | T210A
